B1: Irc24p (Saccharomyces cerevisiae S288C) (protein)
chain: MGKVILITGASRGIGLQLVKTVIEEDDECIVYGVARTEAGLQSLQREYGADKFVYRVLDITDRSRMEALVEEIRQKHGKLDGIVANAGMLEPVKSISQSNSEHDIKQWERLFDVNFFSIVSLVALCLPLLKSSPFVGNIVFVSSGASVKPYNGWSAYGCSKAALNHFAMDIASEEPSDKVRAVCIAPGVVDTQMQKDIRETLGPQGMTPKALERFTQLYKTSSLLDPKVPAAVLAQLVLKGIPDSLNGQYLRYNDERLGPVQG
B2: Nre1p (Saccharomyces cerevisiae S288C) (protein)
chain: MGKVILVTGVSRGIGKSIVDVLFSLDKDTVVYGVARSEAPLKKLKEKYGDRFFYVVGDITEDSVLKQLVNAAVKGHGKIDSLVANAGVLEPVQNVNEIDVNAWKKLYDINFFSIVSLVGIALPELKKTNGNVVFVSSDACNMYFSSWGAYGSSKAALNHFAMTLANEERQVKAIAVAPGIVDTDMQVNIRENVGPSSMSAEQLKMFRGLKENNQLLDSSVPATVYAKLALHGIPDGVNGQYLSYNDPALADFMP

Substrate: O=C(C(=O)c1ccccc1)c1ccccc1
Assay: purified protein
Type: biochemical, Saccharomyces cerevisiae
Conditions: NADPH 0.075 mM (preferred cofactor; NADH also measured), 10 mM Tris-HCl pH 8.0, 30 C, apparent Km

Protein | Km [µM]
B1 | 420
B2 | 390
